Measurements from patent US20260069656A1, “Nutritive Polypeptides and Formulations Thereof, and Methods of Production and Use Thereof” (Axcella Health Inc., priority 2013, published 2026).
Changes are numbered by the printed parent chain. Names and notes keep the numbering of the source.

B1: SEQID-00363 (E. coli): nutritive polypeptide (protein)
chain: ATLDSWLSNEATVARTAILNNIGADGAWVSGADSGIVVASPSTDNPDYFYTWTRDSGLVLKTLVDLFRNGDTSLLSTIENYISAQAIVQGISNPSGDLSSGAGLGEPKFNVDETAYTGSWGRPQRDGPALRATAMIGFGQWLLDNGYTSTATDIVWPLVRNDLSYVAQYWNQTGYDLWEEVNGSSFFTIAVQHRALVEGSAFATAVGSSCSWCDSQAPEILCYLQSFWTGSFILANFDSSRSGKDANTLLGSIHTFDPEAACDDSTFQPCSPRALANHKEVVDSFRSIYTLNDGLSDSEAVAVGRYPEDTYYNGNPWFLCTLAAAEQLYDALYQWDKQGSLEVTDVSLDFFKALYSDAATGTYSSSSSTYSSIVDAVKTFADGFVSIVETHAASNGSMSEQYDKSDGEQLSARDLTWSYAALLTANNRRNSVVPASWGETSASSVPGTCAATSAIGTYSSVTVTSWPSIVATGGTTTTATPTGSGSVTSTSKTTATASKTSTSTSSTSCTTPTAVAVTFDLTATTTYGENIYLVGSISQLGDWETSDGIALSADKYTSSDPLWYVTVTLPAGESFEYKFIRIESDDSVEWESDPNREYTVPQACGTSTATVTDTWR
modifications: Aspergillus niger
B2: SEQID-00546: protein of the 168 nutritive polypeptide library (protein, listed as Saccharomyces cerevisiae)
chain: MCSAGGIRRPIQIEEFKTAISGMSDMELAQIKTEIENSINHLQRSNARLGKYIAKLEGADDRLEADDSDDLENIDSGDLALYKDSVRENEIVLNNYNERVDALEQETVYRKTGHGKSKHEVEAKDNTNKGPDVDMDNSNVDVVTPNSIFI
modifications: strain ATCC 204508 / S288c
B3: SEQID-00420: nutritive polypeptide (protein)
chain: AAAPLEKRSCTFTSASAAKSGKSSCSTITLDNIAVPAGETLDLTGLKKGTTVIFEGETTFGYKEWKGPLISMSGTDITVKQASGAKINCDGARWWDGKGSNGGKTKPKFFQAHKLDQSSITGLKVYNTPVQGFSILADHLTITDVTIDNSAGTSKGHNTDAFDIGQSTYITIDGATVYNQDDCLAINSGEHITFTNGYCDGGHGLSIGSIGGRSDNTVNDVTISNSKVLNSQNGVRIKTIYGKTGTVENVKFEDITLSDISKYGIVVEQDYENGSPTGTPTNGVKVEDITFKKVTGSVKSSGTDIYILCGSGSCSNWTWSGVDVTGGKKSSKCKNVPSGASCSD
modifications: Aspergillus niger; strain CBS 513.88 / FGSC A1513
B4: SEQID-00356: nutritive polypeptide (protein)
chain: MATAAEKLSALKSAVAGLNEISENEKNGFISLVGRYLSGEAQHVEWSKIQTPTDEVVVPYDTLAPTPEGSSEVKNLLDKLVVLKLNGGLGTTMGCTGPKSVIEVRDGLTFLDLIVIQIENLNSKYGSNVPLLLMNSFNTHDDTQKIVEKYQNSNIEIHTFNQSQYPRLVVEDFLPLPSKGHTDKDGWYPPGHGDVFPSLLNSGKLDALLSQGKEYVFVANSDNLGAIVDLKILNHLIQNKNEYCMEVTPKTLADVKGGTLISYEGRVQLLEIAQVPDEHVNEFKSIEKFKIFNTNNLWVNLNAVKRLVEADALKMEIIPNPKEVDGIKVLQLETAAGAAIRFFDKAIGINVPRSRFLPVKATSDLLLVQSDLYTLEDGFVIRNKARENPENPSIELGPEFKKVSNFLGRFKSIPSIVELDSLKVAGDVWFGAGVILKGKVSIVSKPGVKLEVPDGVAIVDKEINGPEDL
modifications: Glycine max
B5: SEQID-00418: nutritive polypeptide (protein)
chain: VPRVRRQGASSSFDYKSQIVRGVNLGGWLVTEPWITPSLYDSTGGGAVDEWTLCQILGKDEAQAKLSSHWSSFITQSDFDRMAQAGLNHVRIPIGYWAVAPIDGEPYVSGQIDYLDQAVTWARAAGLKVLVDLHGAPGSQNGFDNSGHRGPIQWQQGDTVNQTMTAFDALARRYAQSDTVTAIEAVNEPNIPGGVNEDGLKNYYYGALADVQRLNPSTTLFMSDGFQPVESWNGFMQGSNVVMDTHHYQVFDTGLLSMSIDDHVKTACSLATQHTMQSDKPVVVGEWTGALTDCAKYLNGVGNAARYDGTYMSTTKYGDCTGKSTGSVADFSADEKANTRRYIEAQLEAYEMKSGWLFWTWKTEGAPGWDMQDLLANQLFPTSPTDRQYPHQCS
modifications: Aspergillus niger; strain CBS 513.88 / FGSC A1513
B6: SEQID-00418 (E. coli): nutritive polypeptide (protein)
chain: B5 chain
modifications: Aspergillus niger; strain CBS 513.88 / FGSC A1513
B7: SEQID-00001: nutritive polypeptide (protein, listed as Gallus gallus)
chain: MGSIGAASMEFCFDVFKELKVHHANENIFYCPIAIMSALAMVYLGAKDSTRTQINKVVRFDKLPGFGDSIEAQCGTSVNVHSSLRDILNQITKPNDVYSFSLASRLYAEERYPILPEYLQCVKELYRGGLEPINFQTAADQARELINSWVESQTNGIIRNVLQPSSVDSQTAMVLVNAIVFKGLWEKAFKDEDTQAMPFRVTEQESKPVQMMYQIGLFRVASMASEKMKILELPFASGTMSMLVLLPDEVSGLEQLESIINFEKLTEWTSSNVMEERKIKVYLPRMKMEEKYNLTSVLMAMGITDVFSSSANLSGISSAESLKISQAVHAAHAEINEAGREVVGSAEAGVDAASVSEEFRADHPFLFCIKHIATNAVLFFGRCVSP
B8: SEQID-00357: nutritive polypeptide (protein)
chain: MKPLNRRTKIVATIGPASNSREVLYQMIQAGMNVVRLNFSHGSHEQHTKTVALLKEISQELKTSITLLQDLQGPKIRVGQLPDGGIQLMAGEYITLVPIDQYESKPNTIAIDYLHLGEEAEIGAQVLLDDGLLELKVEEISGNQVKCKIIEGGTLKSRKGVNLPSLTLRLPSLTEKDQQDLEFGISLGVDWVSLSFVRNAEDVRVLKDFLASKNASQISVMAKIEKPQAIANLEEIISECNGLMVARGDLGVEMSPERVPLLQKQIIRLCNQKGIPVITATQMLDSMINNPRPTRAEASDVANAIIDGTDAVMLSGESAVGKYPIRAVEMLAKIAEDVEPEINFINYPPAFNDETHAISEAINTIDKIIDLHCIIAYTCSGYTGQLAAAERPKAPVVALTPNPKVYHRLNLVWGVKPLLLEQEVESFEELINQAQTYLLVRQMASPGDKILIIGGIPSGKAKGTNFIKIHTIG
modifications: Arthrospira platensis NIES-39
B9: SEQID-00354: nutritive polypeptide (protein)
chain: MSLSNKLTLDKLDVKGKRVVMRVDFNVPMKNNQITNNQRIKAAVPSIKYCLDSGAKSVVLMSHLGRPDGVPMPDKYSLQPVAVELKSLLGKDVLFLKDCVGPEVEKACADPAAGSVILLENLRFHVEEEGKGKDASGNKVKAEPTKIEAFRASLSKLGDVYVNDAFGTAHRAHSSMVGVNLPKKAGGFLMKKELNYFAKALESPERPFLAILGGAKVADKIQLISNMLDKVNEMIIGGGMAFTFLKVLNNMEIGTSLFDEEGSKIVKDLMSKADKNGVKITLPVDFVTADKFDENAKTGQATVASGIPVGWMGLDCGPESSKKYAEAVARAKQIVWNGPVGVFEWEAFARGTKALMDEVVKATSRGCITIIGGGDTATCCAKWNTEDKVSHVSTGGGASLELLEGKVLPGVDALSSV
modifications: Ovis aries
B10: SEQID-00407 (BS): a-amylase in Bacillus subtilis (amyE); Wild-type of Tables E37A and E38E (protein, listed as Bacillus subtilis)
chain: ETANKSNELTAPSIKSGTILHAWNWSFNTLKHNMKDIHDAGYTAIQTSPINQVKEGNQGDKSMSNWYWLYQPTSYQIGNRYLGTEQEFKEMCAAAEEYGIKVIVDAVINHTTSDYAAISNEVKSIPNWTHGNTQIKNWSDRWDVTQNSLLGLYDWNTQNTQVQSYLKRFLDRALNDGADGFRFDAAKHIELPDDGSYGSQFWPNITNTSAEFQYGEILQDSASRDAAYANYMDVTASNYGHSIRSALKNRNLGVSNISHYASDVSADKLVTWVESHDTYANDDEESTWMSDDDIRLGWAVIASRSGSTPLFFSRPEGGGNGVRFPGKSQIGDRGSALFEDQAITAVNRFHNVMAGQPEELSNPNGNNQIFMNQRGSHGVVLANAGSSSVSINTATKLPDGRYDNKAGAGSFQVNDGKLTGTINARSVAVLYPDDIAKAPHVFLENYKTGVTHSFNDQLTITLRADANTTKAVYQINNGPETAFKDGDQFTIGKGDPFGKTYTIMLKGTNSDGVTRTEKYSFVKRDPASAKTIGYQNPNHWSQVNAYIYKHDGSRVIELTGSWPGKPMTKNADGIYTLTLPADTDTTNAKVIFNNGSAQVPGQNQPGFDYVLNGLYNDSGLSGSLPH
modifications: strain 168
B11: SEQID-00672 (BS): nutritive polypeptide (protein, listed as Saccharomyces cerevisiae)
chain: MSSSESIRMVLIGPPGAGKGTQAPNLQERFHAAHLATGDMLRSQIAKGTQLGLEAKKIMDQGGLVSDDIMVNMIKDELTNNPACKNGFILDGFPRTIPQAEKLDQMLKEQGTPLEKAIELKVDDELLVARITGRLIHPASGRSYHKIFNPPKEDMKDDVTGEALVQRSDDNADALKKRLAAYHAQTEPIVDFYKKTGIWAGVDASQPPATVWADILNKLGKD
modifications: strain ATCC 204508 / S288c
B12: SEQID-00678 (BS): nutritive polypeptide (protein, listed as Saccharomyces cerevisiae)
chain: B11 chain with R42K
modifications: strain ATCC 204508 / S288c
B13: SEQID-00359: nutritive polypeptide naturally produced in Sheep, recombinantly expressed in E. coli (protein)
chain: MLELGSQRNRAKNNHIGDLMSQSFESLGISEQRARHLETLGFTEPTPVQIQAIPEMLSGRDVVGMAQTGTGKTAAFSLPILEQIDVHAAGIQALVLTPTRELAMQVKEAIRTFSDDNALYVLTVYGGQSIDRQIQRLRRGVQVVVGTPGRILDLLNRGELKLDLLRWLVLDEADEMLSMGFIQDVEKILESADSEHRQTAFFSATMDASISKLVRRHLKSPVTVKVETPKATPKRIEQSVYMVPRGWSKARALEPILELEDPESAIIFVRTKQSAADLTNQLQAAGHSVDEYHGNLNQSQRERLLMRLRRRQVRWIVATDIAARGLDVDHLTHVINYDLPDQVDSYVHRIGRTGRAGREGKAITLIQPIDRRKLRNIERHLRQTLSIQSIPKRAEIEARYIDRLKDRVRDALAGERMASFLPIVSQLSEEYDPHAIAAAALQLAYDQTRPASIGRDDYEDDDDAVSNKPKLIKRRRPASVSNNS
modifications: Arthrospira platensis NIES-39

Assay: Intact half-life during simulated gastric fluid (SGF) digestion
Settings: SGF pH 1.5, pepsin:polypeptide 1:20 w/w, 37° C.; produced in E. coli unless otherwise noted
Description: Nutritive polypeptide half-life during simulated digestion. One metric for quantifying the breakdown of polypeptides from an intact form to smaller peptides is the intact half-life. In this experiment the nutritive polypeptide was exposed to a series of proteases that are active in the stomach (pepsin) and intestine (trypsin and chymotrypsin), and the presence of intact protein was measured over time. Specifically, the nutritive polypeptide was first treated at a concentration of 2 g/L with simulated gastric fluid (SGF) (0.03 M NaCl, titrated with HCl to pH 1.5 with a final pepsin: polypeptide ratio of 1:20 w/w) at 37° C. Time points were sampled from the reaction and quenched by addition of 0.2 M Na2CO3. […] Time points were sampled from the reaction and quenched by addition of Trypsin/Chymotrypsin Inhibitor (Sigma) solution until 240 min.
Time point samples were analyzed for intact protein by chip electrophoresis, polyacrylamide gel electrophoresis, or western blot. For chip electrophoresis (Labchip GX II), samples were analyzed using a HT Low MW Protein Express LabChip® Kit (following the manufacturer's protocol). A protein ladder was loaded every 12 samples for molecular weight determination (kDa) and quantification. For polyacrylamide gel electrophoresis, samples (1 μg) were separated on a NuPAGE® Novex® Bis-Tris Precast gel (Life Technologies) according to the manufacturer's protocol. The gel was stained using SimplyBlue™ SafeStain (Invitrogen) and imaged using a Chemidoc XRS+ (BioRad) or transferred onto nitrocellulose membranes using the iBlot® Dry Blotting System (Life Technologies) and iBlot® Western Detection Kit (Life Technologies) according to the manufacturer's protocol. Proteins were detected by blotting with Anti-His [C-term]-HRP antibody diluted 3:5000 in Blok™-PO Blocking Buffer using the SNAP i.d.® Protein Detection System (Millipore) according to the manufacturer's protocol. Blots were treated with Luminata Classico Western HRP Substrate (Millipore) according to the manufacturer's protocol and imaged using chemiluminescent detection on the Molecular Imager® Gel Doc™ XR+ System (Bio-Rad). Quantification of intact protein was determined by densitometry using ImageLab (BioRad). For all analysis methods the relative concentration of the polypeptide at each time point (if detected) was plotted overtime and fit to an exponential curve to calculate the intact half-life.
Specifically, the t=0 (enzyme-free control) and t=2 min samples from the SGF digest were analyzed for intact protein as described by chip electrophoresis, SDS-PAGE, western blot, and/or LC-MS/MS. Relative quantities of polypeptides at each time point were determined and the percentage of intact protein remaining at t=2 was determined.

Row | Molecule | SGF Half-life (t½)
1 | B1 | <600 s
2 | B2 | <600 s
3 | B3 | 72 s
4 | B4 | 12 s
5 | B5 | 12 s
6 | B6 | 30 s
7 | B7 | 300 s
8 | B8 | 12 s
9 | B9 | 12 s
10 | B10 | 12 s
11 | B11 | 18 s
12 | B12 | 12 s
13 | B13 | 12 s
